Results from patent US20250195617A1, “Liquid Pharmaceutical Formulations of CNP Compounds” (Ascendis Pharma Growth Disorders A/S, priority 2022, published 2025).
Bridges are numbered along the chain shown (N, C = ends). Where no end group is shown, it is not given here.

Assay: Storage stability of CNP peptide liquid formulations (F33-45), content and purity by RP-HPLC/MS
Assay type: physicochemical
Conditions: acetate buffer, 5° C., 6 months, LC-MS
Experimental: All excipient stock solutions, except for phenol and m-cresol, were prepared by combining the required excipients in a volumetric flask and filling it up to 90% of the desired volume with water. The pH of the stock solutions was adjusted using 1 M NaOH solution as required and the volume adjusted to the desired volume with water. The stock solutions were filtered through a 0.2 μm PVDF-filter. Stock solutions of phenol (1.75%) and m-cresol (1.05%) were prepared by adding the preservative to the respective excipient stock solution after filtration. Next, the required amount of CNP was dissolved in the required amount of the desired excipient stock solution and the pH was checked and adjusted if needed with 1 M NaOH. The formulations were filtered through a 0.22 μm PVDF filter and the respective preservative stock solution was added. The formulations were aliquoted ready for incubation.
RP-HPLC/MS to determine the content and purity of CNP (F33-45): Mobile phase A was composed of 0.05% aqueous TFA (v/v) and mobile phase B was composed of 0.04% TFA (v/v) in acetonitrile. A Waters Acquity CSH C18, 130 Å, 1.7 μm, 2.1×100 mm column was used. Flow rate was set to 0.3 ml/min, detection was at a wavelength of 215 nm, the column running temperature was 65° C. and the sample injection load was approx. 3 μg CNP-38 eq. (20 μL of a 0.135 mg/ml sample). Samples were diluted to 0.135 mg/mL with dilution buffer (10 mM succinic acid, 84 g/l trehalose dihydrate, adjusted to pH 5 with 1M Tris). For LCMS the HPLC system was coupled to an LTQ Orbitrap Discovery XL instrument and ESI-MS was performed in the positive mode. The change in content of the TIM, T3M and T6M was determined by peak area comparison to the TO sample. For determination of the purity, all peaks higher than the LOQ (0.10%) and not present in the blank were integrated.
The influence of the buffering agent, pH, tonicity agent, detergent, and preservative on the stability of CNP-38 was evaluated. For this purpose, nine formulations of CNP-38 were prepared at a concentration of 2 mg/mL and incubated for 6 months (Table 16). One formulation each at pH 4.5 (F33), pH 5.0 (F34) and pH 4.0 (F35) in acetate buffer were prepared. L-methionine was used to prevent the oxidation of the methionine residue in the peptide, trehalose dihydrate was used as a tonicity or isotonicity agent, Poloxamer 188 as a detergent and m-cresol as a preservative. Another formulation at pH 4.5 containing the same excipients was prepared, in which trehalose was switched to mannitol (F37). […] The formulations were incubated at 5° C. To evaluate whether acetate adducts are formed in acetate buffer, the same formulation as in F33 was incubated at accelerated conditions at 25° C. (F33, 25° C.). […]

Row | Sequence | formation of acetylated species
1 | DLRVDTKSRAAWARLLQEHPNARKYKGANKKGLSKGCFGLKLDRIGSMSGLGC (disulfide 37-53; listed as Homo sapiens) [CNP-53] | No acetylated peptides
2 | GANKKGLSKGCFGLKLDRIGSMSGLGC (disulfide 11-27) [CNP-27] | No acetylated peptides
3 | GLSKGCFGLKLDRIGSMSGLGC [CNP-22] | No acetylated peptides
4 | PGQEHPNARKYKGANKKGLSKGCFGLKLDRIGSMSGLGC (disulfide 23-39) [PG-CNP-37] | No acetylated peptides
